From a protein production outcome set (Wang et al. 2014) come the findings set out here.

The series can be described thus: label from the status in PepcDB records.
In the case of “MASSVLEMIKEEVTCPICLELLKEPVSADCNHSFCRACITLNYESNRNTDGKGNCPVCRVPYPFGNLKPNLHVANIVERLKGFKSIPEEEQKVNICAQHGEKLRLFCRKDMMVICWLCERSQEHRGHQTALIEEVDQEYKEKLQGALRKLMKKAKICDEWQDDLQLQRVDWENQIQINVENVQRQFKGLRDLLDSKENEELQKLKKEKKEVMEKLEESENELEDQTELVRDLISDVEHHLQLSTLEMLQGANCVLRRSQSLSLQQPQSVPQKRKRTFQAPDLKGMLQVYQGLMDIQQYWVHMTLHARNNAVIAINKEKRQIQYRSYNTVPVSEIYHLGVLGYPALSSGKHYWEVDISRSDAWLLGLNDGKCAQPQLHSKEEMGIKKNLHSQIKQNVLFQPKCGYWVIGMKNPSVYNAFDECSITHNSSILVISLPDCPSRVGVFLDRKAGTLSFYDVSNCGALIYRFYDPAFPVEVYPYFNPMKCSEPMTICGPPS”, the protein production entry was “not failed”.

Regarding “MASTIQALPQEVVYLITAGEVIDSFAAVVRELVENSLDAGANRIVVYLWPQQWRVRVADNGCGMNLDDLQQAASAHSTSKIRSSADLWKIHSLGFRGEALHSLTTLADVEIISRAPENVGWRVVYGDSGKAVHVEATAIAPGTVVTVSNLFASCAARRQGLPTTAQQMKAVQATIQQIALCHPQTTWQVWQNDRIWFTISPAATAGQLIPQFLPQLRPSDLQEIKLEIPNPENPQLSTNNKPNASALALVVGLPDRCHRHRPDWVRVAINGRMIKLPELEQTILAAFHRTLPRDRYPLCFVHLLISPDQINWNRNPAKTEIYLHDLSYWQEQVTQAINQALRISAANIPESVQTTRVSQLLKAAEEKGNYNFNPRNANPADNTQNYLKAVAQVSNTYIVAEHPGGMWLVEQHIAHERVLYEQLCDNWRLIPVEPPIILYQLSPAQVAQLQRIGLDIDIFGEQLWAVRNLPAMLQQREDCAEAILELSWGGDLQTAQVAVACRSAIRNGTPMSLPEMQKLLDDWQRTRNPRTCPHGRPIYLSLDESSLSRFFRRHWVIGKSHGI”, the protein production result was “failed”.

Turning to “MASVAAARAVPVGSGLRGLQRTLPLVVILGATGTGKSTLALQLGQRLGGEIVSADSMQVYEGLDIITNKVSAQEQRICRHHMISFVDPLVTNYTVVDFRNRATALIEDIFARDKIPIVVGGTNYYIESLLWKVLVNTKPQEMGTEKVIDRKVELEKEDGLVLHKRLSQVDPEMAAKLHPHDKRKVARSLQVFEETGISHSEFLHRQHTEEGGGPLGGPLKFSNPCILWLHADQAVLDERLDKRVDDMLAAGLLEELRDFHRRYNQKNVSENSQDYQHGIFQSIGFKEFHEYLITEGKCTLETSNQLLKKGIEALKQVTKRYARKQNRWVKNRFLSRPGPIVPPVYGLEVSDVSKWEESVLEPALEIVQSFIQGHKPTATPIKMPYNEAENKRSYHLCDLCDRIIIGDREWAAHIKSKSHLNQLKKRRRLDSDAVNTIESQSVSPDHNKEPKEKGSPGQNDQELKCSV”, the protein production entry was “failed”.

Take “MATAAASVVSSETGDLRAYMAANPAAVIEEVAKQWNVSPHAVIAALPDGMARLGPGDGFVAAMNDIATWGEVTLIVHTEDAIFEFTGEVPRGEISRGYFNLMQPKGLHGHLRHDRCGALAFVERPFMGKASAFVAFLNRDGGIMFKVFVGRDANRELRADQLARFHALAKQFSEEHSALEHHHHHH”: the protein production result is given as “failed”.

For the sequence “MATCIWLRSCGARRLGSTFPGCRLRPRAGGLVPASGPAPGPAQLRCYAGRLAGLSAALLRTDSFVGGRWLPAAATFPVQDPASGAALGMVADCGVREARAAVRAAYEAFCRWREVSAKERSSLLRKWYNLMIQNKDDLARIITAESGKPLKEAHGEILYSAFFLEWFSEEARRVYGDIIHTPAKDRRALVLKQPIGVAAVITPWNFPSAMITRKVGAALAAGCTVVVKPAEDTPFSALALAELASQAGIPSGVYNVIPCSRKNAKEVGEAICTDPLVSKISFTGSTTTGKILLHHAANSVKRVSMELGGLAPFIVFDSANVDQAVAGAMASKFRNTGQTCVCSNQFLVQRGIHDAFVKAFAEAMKKNLRVGNGFEEGTTQGPLINEKAVEKVEKQVNDAVSKGATVVTGGKRHQLGKNFFEPTLLCNVTQDMLCTHEETFGPLAPVIKFDTEEEAIAIANAADVGLAGYFYSQDPAQIWRVAEQLEVGMVGVNEGLISSVECPFGGVKQSGLGREGSKYGIDEYLELKYVCYGGL”, the protein production result is reported as “failed”.

“MATEKYHEILKKYFLSFETGDFSQVQFSCNLEFLSPISGNTLKGTEEVIPFLKGVTTRVAEVNIMSTTVEYPRASGVWQMRTTKGTLYTLHNFFRLDEEGIVYVWPMFDPKAVMENPDALIQWLTGKDY”: the protein production entry is on record as “not failed”.

For “MATFFFKTNYYQEIMLKRIFFLMIFFVSQTMASVFTHEEVQILKKHFLNNFQTNGAIVASPSQYNPNYYYDWIRDSAIAMGLVETWYEASQSARYKKLLLEYVSWTEKIQHQADPIAGQDILGEPKFYINGNPFDGEWGRPQNDGPALRASVLIRFAQQLLDHNEIDYVKSHLYNNTMDPQSMGTIKMDLEYIAHHWQDANFDLWEEVYGHHFFTAMAQQKALTDGAILAHQLHDRQAAVFYEMQANLINSRLKQHLDHQNKIIQATLLPHPGPQKTLELDSSVMLGILINPQKEGVFAPHHTFVQNTAKALHEQFNLMFPINKNRSGAILFGRYPGDTYDGYQTNSIGNPWFILTATMAEYYFTMAHNLSPNSINKLHIQNYLKKGDNYLRLIKQYGPDLNLSEQINLNTGVQQGATSLTWSYVSVLRAIHLREQLENRIKTTGWNTY”, the protein production entry is reported as “failed”.

Regarding “MATFMTEDFLLKNDIARTLYHKYAAPMPIYDFHCHLSPQEIADDRRFDNLGQIWLEGDHYKWRALRSAGVDESLITGKETSDYEKYMAWANTVPKTLGNPLYHWTHLELRRPFGITGTLFGPDTAESIWTQCNEKLATPAFSARGIMQQMNVRMVGTTDDPIDSLEYHRQIAADDSIDIEVAPSWRPDKVFKIELDGFVDYLRKLEAAADVSITRFDDLRQALTRRLDHFAACGCRASDHGIETLRFAPVPDDAQLDAILGKRLAGETLSELEIAQFTTAVLVWLGRQYAARGWVMQLHIGAIRNNNTRMFRLLGPDTGFDSIGDNNISWALSRLLDSMDVTNELPKTILYCLNPRDNEVLATMIGNFQGPGIAGKVQFGSGWWFNDQKDGMLRQLEQLSQMGLLSQFVGMLTDSRSFLSYTRHEYFRRILCNLLGQWAQDGEIPDDEAMLSRMVQDICFNNAQRYFTIK”, the protein production entry is “not failed”.

As for “MATGLGFFKLSFLLSLLSGGSDLLGPDAESGVAQIGKFPPSCNRIECPSYELVHSGNGYEIRRYNNTVWVSTEPIPDISLVDATRTAFFQLFAYIQGKNEYHQKIEMTAPVISQVSPSDGPFCESSFTVSFYVPKKNQPDPAPSENLHIQKWNSRYVAVRQFSGFVSDDSIGEQAAALDSSLKGTAWANAIAKSKEDGGVGSDSAYTVAQYNSPFEFSGRVNEIWLPFELDV”, the protein production result is “failed”.

As for “MATGTATEKPKIVWNEGRHRFETDDHEAFIEYKMKNDGKVMDLVRTFVPPSKAGLGLASHLCVAAFEHASEHSFSIIPTCSYVSVYISSFLKKLR”, the protein production entry was “failed”.

Take “MATLLGFSQTKFHHCGVWISTPPCSSSSTVVSMVGLNRTDSKKLRSDFLGQIGYEDRRQVRHSYCRSSLAVKMSWDGPLASVKLIIQGKNLELSEPIKQHVEEKVGKSVQKHSHLVREVDVRLSVRGGEFGKGPRIRRCEVTLFTKKHGVVRAEEDAETVYACIDLVSTIIQRKLRKIKEKDSDHGRHMKGFNRLKVREPVIEPVVEDVEDSTDSSVGEEEEEDDLIKEIVRTKTFEMPPLTVAEAVEQLELVSHDFYGFQNEETGEINIVYKRKEGGYGLIIPKKDGKAEKVEPLPTEQLNEHSFAE”: the protein production entry is “failed”.

Regarding “MATLPAAETWIDGGGGVGADAVNLTASLAAGAATGAVETGWLQLLDQAGNLSSSPSALGLPVASPAPSQPWANLTNQFVQPSWRIALWSLAYGVVVAVAVLGNLIVIWIILAHKRMRTVTNYFLVNLAFSDASMAAFNTLVNFIYALHSEWYFGANYCRFQNFFPITAVFASIYSMTAIAVDRYMAIIDPLKPRLSATATKIVIGSIWILAFLLAFPQCLYSKTKVMPGRTLCFVQWPEGPKQHFTYHIIVIILVYCFPLLIMGITYTIVGITLWGGEIPGDTCDKYHEQLKAKRKVVKMMIIVVMTFAICWLPYHIYFILTAIYQQLNRWKYIQQVYLASFWLAMSSTMYNPIIYCCLNKRFRAGFKRAFRWCPFIKVSSYDELELKTTRFHPNRQSSMYTVTRMESMTVVFDPNDADTTRSSRKKRATPRDPSFNGCSRRNSKSASATSSFISSPYTSVDEYS”, the protein production entry is reported as “failed”.

Turning to “MATRFDVKTIVKDKRFWIASFIIVWAAGLQGHMMWLQKQESFKQKFGTIDEDDHK”, the protein production result is reported as “failed”.

Take “MATTTSAACPIFSLSLLGRFVLTGPDGAVSLPNKKLAGLLAFLACMAPDPQSREKLSTLLWGSYLDAQAKQNLRQALFKLRQILGQDALRSDGELVSLNAMVIACDVSQFEELVQDGSRDALSAAADLYRGRLADDISVGEECWSEWVAGERERLSELALGAMVTLGGHELSEGRAEQALRTGQRANALNNLREDSHRLIMRALSATGRNAEALKYYRDVVALLKRELSTEPDLATRSLAAELRSNHPQNAAPAAGEVAPEASPPPALVMHGERPSLVVLPFSNMSGDPEQDYFADGVTADIITALSRFRALVVIARGTSFALRDKGMTSQQIAQQLGVQYVLSGQIRKAGNRIRVSAELTHSGSEAQVWSDRYDRPLTDIFDLQDDVSSSVAAVVDPAVRSAEIERARRKPPTNLSAYDLYLRALHHLWGGTREDITKAIDLLRQSLSLDEARSPTLAALAWGLVMASPLGAHTSPDATTEALSLARRAVEQDGTDAFAHAVYGFTLFGPAGDNDQGRIHAVEAVRLNPSSAFAWGTLGMIDSMAGDYENAVTCLHRSLVLSPYDSMLHLWMTGLTASCFALGRHEDGIAWARKSVQHNPGNGTGHRMLAANLVAAGRLEEAREITRRRDATQKTTIRDLRAMRFFKQNDALERYLSAQQVAGVAD”: the protein production result is on record as “failed”.
